In the supplement of paper PMC10567573:

B1: ADD1 (parent)
chain: FASDGDSGTCSPLRHSFQKQQREK

Variants of: B1
Test: protein stability index of a GFP-peptide fusion (GPS, HEK-293T) (PSI 1-6); higher = more stable
Settings: c terminus: a fixed tail appended
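Note: lentivirally expressed fusions sorted by FACS into six bins by GFP to DsRed ratio, PSI derived from sequencing read proportions per bin multiplied by bin number.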

Row | Variant | protein stability index
1 | FASDGDSQTCSPLRHSFQKQQREK | 3.7
2 | FASDGDSITCSPLRHSFQKQQREK | 3.15
3 | FASDGDSSTCSPLRHSFQKQQREK | 3.58
4 | FASDGDSHTCSPLRHSFQKQQREK | 3.86
5 | FASDGDSCTCSPLRHSFQKQQREK | 3.1
6 | FASDGDSLTCSPLRHSFQKQQREK | 3.2
7 | FASDGDSKTCSPLRHSFQKQQREK | 3.57
8 | FASDGDSDTCSPLRHSFQKQQREK | 4.29
9 | FASDGDSRTCSPLRHSFQKQQREK | 3.98
10 | FASDGDSATCSPLRHSFQKQQREK | 2.82
11 | FASDGDSNTCSPLRHSFQKQQREK | 3.5
12 | FASDGDSVTCSPLRHSFQKQQREK | 3.81
13 | FASDGDSYTCSPLRHSFQKQQREK | 2.5
14 | FASDGDSETCSPLRHSFQKQQREK | 3.92
15 | FASDGDSPTCSPLRHSFQKQQREK | 4.47
16 | FASDGDSMTCSPLRHSFQKQQREK | 2.96
17 | FASDGDSTTCSPLRHSFQKQQREK | 3.75
18 | FASDGDSFTCSPLRHSFQKQQREK | 1.44
19 | FASDGDSGTCSPLRWSFQKQQREK | 2.39
20 | FASDGDSGTCSPLRLSFQKQQREK | 3.21
21 | FASDGDSGTCSPLRGSFQKQQREK | 3.29
22 | FASDGDSGTCSPLRPSFQKQQREK | 4.01
23 | FASDGDSGTCSPLRDSFQKQQREK | 5.02
24 | FASDGDSGTCSPLRKSFQKQQREK | 4.1

Row | Variant | protein stability index
25 | FASDGDSGTCSPLRSSFQKQQREK | 4.22
26 | FASDGDSGTCSPLRESFQKQQREK | 4.34
27 | FASDGDSGTCSPLRFSFQKQQREK | 3.01
28 | FASDGDSGTCSPLRISFQKQQREK | 3.5
29 | FASDGDSGTCSPLRASFQKQQREK | 3.83
30 | FASDGDSGTCSPLRQSFQKQQREK | 3.44
31 | FASDGDSGTCSPLRMSFQKQQREK | 2.88
32 | FASDGDSGTCSPLRCSFQKQQREK | 2.62
33 | FASDGDSGTCSPLRYSFQKQQREK | 3.44
34 | FASDGDSGTCSPLRTSFQKQQREK | 4.16
35 | FASDGDSGTCSPLRRSFQKQQREK | 3.45
36 | FASDGDSGTCSPLRVSFQKQQREK | 2.93
37 | FASDGDSGTCSPLRNSFQKQQREK | 4.41
38 | FASDGDSGTKSPLRHSFQKQQREK | 4.17
39 | FASDGDSGTDSPLRHSFQKQQREK | 4.68
40 | FASDGDSGTQSPLRHSFQKQQREK | 4.13
41 | FASDGDSGTASPLRHSFQKQQREK | 4.67
42 | FASDGDSGTHSPLRHSFQKQQREK | 4.01
43 | FASDGDSGTISPLRHSFQKQQREK | 4.24
44 | FASDGDSGTGSPLRHSFQKQQREK | 4.49
45 | FASDGDSGTRSPLRHSFQKQQREK | 4.07
46 | FASDGDSGTVSPLRHSFQKQQREK | 3.85
47 | FASDGDSGTYSPLRHSFQKQQREK | 1.63
48 | FASDGDSGTPSPLRHSFQKQQREK | 3.65

Row | Variant | protein stability index
49 | FASDGDSGTSSPLRHSFQKQQREK | 4.78
50 | FASDGDSGTNSPLRHSFQKQQREK | 5.17
51 | FASDGDSGTTSPLRHSFQKQQREK | 4.44
52 | FASDGDSGTLSPLRHSFQKQQREK | 3.85
53 | FASDGDSGTFSPLRHSFQKQQREK | 1.87
54 | FASDGDSGTMSPLRHSFQKQQREK | 3.75
55 | FASDGDSGTESPLRHSFQKQQREK | 4.66
56 | FASDGDSGWCSPLRHSFQKQQREK | 3.71
57 | FASDGDSGACSPLRHSFQKQQREK | 4.16
58 | FASDGDSGFCSPLRHSFQKQQREK | 1.64
59 | FASDGDSGECSPLRHSFQKQQREK | 4.79
60 | FASDGDSGLCSPLRHSFQKQQREK | 3.58
61 | FASDGDSGSCSPLRHSFQKQQREK | 3.82
62 | FASDGDSGMCSPLRHSFQKQQREK | 2.4
63 | FASDGDSGRCSPLRHSFQKQQREK | 3.33
64 | FASDGDSGYCSPLRHSFQKQQREK | 2.16
65 | FASDGDSGQCSPLRHSFQKQQREK | 4.04
66 | FASDGDSGHCSPLRHSFQKQQREK | 3.45
67 | FASDGDSGNCSPLRHSFQKQQREK | 4.13
68 | FASDGDSGDCSPLRHSFQKQQREK | 4.36
69 | FASDGDSGPCSPLRHSFQKQQREK | 4.35
70 | FASDGDSGCCSPLRHSFQKQQREK | 3.52
71 | FASDGDSGICSPLRHSFQKQQREK | 2.49
72 | FASDGDSGVCSPLRHSFQKQQREK | 3.31

Row | Variant | protein stability index
73 | FASDGDSGTCSPLNHSFQKQQREK | 4.46
74 | FASDGDSGTCSPLWHSFQKQQREK | 4.02
75 | FASDGDSGTCSPLMHSFQKQQREK | 4.27
76 | FASDGDSGTCSPLAHSFQKQQREK | 4.18
77 | FASDGDSGTCSPLCHSFQKQQREK | 3.52
78 | FASDGDSGTCSPLYHSFQKQQREK | 1.94
79 | FASDGDSGTCSPLDHSFQKQQREK | 4.75
80 | FASDGDSGTCSPLEHSFQKQQREK | 4.64
81 | FASDGDSGTCSPLIHSFQKQQREK | 4.52
82 | FASDGDSGTCSPLHHSFQKQQREK | 3.98
83 | FASDGDSGTCSPLKHSFQKQQREK | 4.55
84 | FASDGDSGTCSPLLHSFQKQQREK | 3.66
85 | FASDGDSGTCSPLTHSFQKQQREK | 4.8
86 | FASDGDSGTCSPLSHSFQKQQREK | 4.45
87 | FASDGDSGTCSPLPHSFQKQQREK | 5.13
88 | FASDGDSGTCSPLGHSFQKQQREK | 4.11
89 | FASDGDSGTCSPLVHSFQKQQREK | 3.97
90 | FASDGDSGTCSPLQHSFQKQQREK | 3.6
91 | FASDGDSGTCSPGRHSFQKQQREK | 4.22
92 | FASDGDSGTCSPIRHSFQKQQREK | 3.97
93 | FASDGDSGTCSPCRHSFQKQQREK | 4.25
94 | FASDGDSGTCSPQRHSFQKQQREK | 4.95
95 | FASDGDSGTCSPVRHSFQKQQREK | 5
96 | FASDGDSGTCSPRRHSFQKQQREK | 5.28

Row | Variant | protein stability index
97 | FASDGDSGTCSPNRHSFQKQQREK | 4.26
98 | FASDGDSGTCSPTRHSFQKQQREK | 4.98
99 | FASDGDSGTCSPDRHSFQKQQREK | 4.72
100 | FASDGDSGTCSPKRHSFQKQQREK | 4.57
101 | FASDGDSGTCSPSRHSFQKQQREK | 4.55
102 | FASDGDSGTCSPMRHSFQKQQREK | 4.02
103 | FASDGDSGTCSPFRHSFQKQQREK | 2.39
104 | FASDGDSGTCSPYRHSFQKQQREK | 2.13
105 | FASDGDSGTCSPHRHSFQKQQREK | 5.09
106 | FASDGDSGTCSPPRHSFQKQQREK | 4.1
107 | FASDGDSGTCSPARHSFQKQQREK | 4.98
108 | FASDGDSGTCSPERHSFQKQQREK | 4.89
109 | FASDGDSGTCSPLRHSRQKQQREK | 4.1
110 | FASDGDSGTCSPLRHSGQKQQREK | 3.44
111 | FASDGDSGTCSPLRHSWQKQQREK | 3.72
112 | FASDGDSGTCSPLRHSQQKQQREK | 4.52
113 | FASDGDSGTCSPLRHSCQKQQREK | 4.17
114 | FASDGDSGTCSPLRHSIQKQQREK | 3.87
115 | FASDGDSGTCSPLRHSEQKQQREK | 4.34
116 | FASDGDSGTCSPLRHSMQKQQREK | 3.95
117 | FASDGDSGTCSPLRHSVQKQQREK | 3.71
118 | FASDGDSGTCSPLRHSSQKQQREK | 4.47
119 | FASDGDSGTCSPLRHSYQKQQREK | 3.79
120 | FASDGDSGTCSPLRHSNQKQQREK | 4.42

Row | Variant | protein stability index
121 | FASDGDSGTCSPLRHSKQKQQREK | 3.95
122 | FASDGDSGTCSPLRHSTQKQQREK | 3.46
123 | FASDGDSGTCSPLRHSLQKQQREK | 4.71
124 | FASDGDSGTCSPLRHSHQKQQREK | 3.65
125 | FASDGDSGTCSPLRHSPQKQQREK | 4.82
126 | FASDGDSGTCSPLRHSAQKQQREK | 3.68
127 | FASDGDSGTCSPLRHSDQKQQREK | 4.62
128 | FASDGDRGTCSPLRHSFQKQQREK | 4.01
129 | FASDGDWGTCSPLRHSFQKQQREK | 2.06
130 | FASDGDVGTCSPLRHSFQKQQREK | 1.49
131 | FASDGDTGTCSPLRHSFQKQQREK | 3.19
132 | FASDGDPGTCSPLRHSFQKQQREK | 3.85
133 | FASDGDYGTCSPLRHSFQKQQREK | 3.04
134 | FASDGDQGTCSPLRHSFQKQQREK | 3.76
135 | FASDGDSGTCSPLRHLFQKQQREK | 3.17
136 | FASDGDSGTCSPLRHYFQKQQREK | 3.88
137 | FASDGDSGTCSPLRHNFQKQQREK | 4.35
138 | FASDGDSGTCSPLRHPFQKQQREK | 2.28
139 | FASDGDSGTCSPLRHKFQKQQREK | 4.59
140 | FASDGDSGTCSPLRHRFQKQQREK | 3.89
141 | FASDGDSGTCSPLRHMFQKQQREK | 2.46
142 | FASDGDSGTCSPLRHIFQKQQREK | 1.99
143 | FASDGDSGTCSPLRHCFQKQQREK | 2.24
144 | FASDGDSGTCSPLRHGFQKQQREK | 3.54

Row | Variant | protein stability index
145 | FASDGDSGTCSPLRHWFQKQQREK | 2.75
146 | FASDGDSGTCSPLRHVFQKQQREK | 2.31
147 | FASDGDSGTCSPLRHAFQKQQREK | 3.52
148 | FASDGDSGTCSPLRHDFQKQQREK | 4.82
149 | FASDGDSGTCSPLRHQFQKQQREK | 4.27
150 | FASDGDSGTCSPLRHFFQKQQREK | 2.84
151 | FASDGDSGTCSPLRHHFQKQQREK | 4.27
152 | FASDGDSGTCSNLRHSFQKQQREK | 4.95
153 | FASDGDSGTCSQLRHSFQKQQREK | 4.79
154 | FASDGDSGTCSRLRHSFQKQQREK | 4.6
155 | FASDGDSGTCSGLRHSFQKQQREK | 4.73
156 | FASDGDSGTCSALRHSFQKQQREK | 4.76
157 | FASDGDSGTCSSLRHSFQKQQREK | 3.67
158 | FASDGDSGTCSCLRHSFQKQQREK | 2.73
159 | FASDGDSGTCSTLRHSFQKQQREK | 4.59
160 | FASDGDSGTCSKLRHSFQKQQREK | 3.3
161 | FASDGDSGTCSVLRHSFQKQQREK | 3.89
162 | FASDGDSGTCSFLRHSFQKQQREK | 3.02
163 | FASDGDSGTCSLLRHSFQKQQREK | 3.88
164 | FASDGDSGTCSELRHSFQKQQREK | 3.93
165 | FASDGDSGTCSILRHSFQKQQREK | 3.37
166 | FASDGDSGTCSHLRHSFQKQQREK | 3.91
167 | FASDGDSGTCSYLRHSFQKQQREK | 3.86
168 | FASDGDSGTCSDLRHSFQKQQREK | 4.34

Row | Variant | protein stability index
169 | FASDGDSGTCSMLRHSFQKQQREK | 4.39
170 | FASDGDSGTCAPLRHSFQKQQREK | 3.9
171 | FASDGDSGTCTPLRHSFQKQQREK | 4.53
172 | FASDGDSGTCLPLRHSFQKQQREK | 3.94
173 | FASDGDSGTCKPLRHSFQKQQREK | 4.45
174 | FASDGDSGTCPPLRHSFQKQQREK | 4.62
175 | FASDGDSGTCQPLRHSFQKQQREK | 4.25
176 | FASDGDSGTCYPLRHSFQKQQREK | 3.92
177 | FASDGDSGTCCPLRHSFQKQQREK | 3.16
178 | FASDGDSGTCFPLRHSFQKQQREK | 3.17
179 | FASDGDSGTCNPLRHSFQKQQREK | 1.87
180 | FASDGDSGTCGPLRHSFQKQQREK | 4.35
181 | FASDGDSGTCRPLRHSFQKQQREK | 4.39
182 | FASDGDSGTCEPLRHSFQKQQREK | 4.5
183 | FASDGDSGTCDPLRHSFQKQQREK | 4.04
184 | FASDGDSGTCWPLRHSFQKQQREK | 2.17
185 | FASDGDSGTCMPLRHSFQKQQREK | 3.75
186 | FASDGDSGTCHPLRHSFQKQQREK | 2.62
187 | FASDGDSGTCIPLRHSFQKQQREK | 3.79
188 | FASDGDSGTCVPLRHSFQKQQREK | 4.58
